Results on 24 substances are retold here after patent publication US20250304628A1.

The Kd is the concentration at which binding is half-saturated. A lower Kd goes with a tighter complex.

One test has as its target IgG. In words: dynamic binding capacity at 10% breakthrough; ligand coupled to agarose medium; after 24 h of 1 M NaOH treatment (2 h cycles).
Substance Z(E15D)4 (designed binder) displayed a Remaining IgG capacity after 24 hours (dynamic binding capacity at 10% breakthrough) of 21.6 mg/mL.
On the same count and under the same terms, as for Z(E15F)4 (designed binder), the figure is 35.5 mg/mL; as for Z(E15I)4 (designed binder), 33 mg/mL; as for Z(E15L)4 (designed binder), 63 mg/mL.
The substance Z(E15S)4 (designed binder) had a Remaining IgG capacity after 24 hours (dynamic binding capacity at 10% breakthrough) of 72 mg/mL.
The same measure, in the same setting: the result for Z(E15T)4 (designed binder) reads 45.5 mg/mL; that for Z(E15V)4 (designed binder), 33.2 mg/mL.
Z(E15W)4 (designed binder) yielded a Remaining IgG capacity after 24 hours (dynamic binding capacity at 10% breakthrough) of 38.1 mg/mL.
Z(E15Y)4 (designed binder) yielded a Remaining IgG capacity after 24 hours (dynamic binding capacity at 10% breakthrough) of 48.6 mg/mL.
The same measure, in the same setting: the result for “Z(N3L, N6E, Q9F, E15L, N23I)4 (designed binder)” reads 65 mg/mL; that for “Z(N3L, N6E, Q9I, E15I, N23I)4 (designed binder)”, 57.2 mg/mL; that for “Z(N3L, N6E, Q9I, E15I, N23I)6 (designed binder)”, 87.8 mg/mL.
The same measure, in the same setting: the result for “Z(N3L, N6L, Q9F, E15I, N23V)4 (designed binder)” reads 68.4 mg/mL; that for “Z(N3L, N6L, Q9F, E15I, N23V)6 (designed binder)”, 112 mg/mL.
“Z(N3L, N6L, Q9I, E15L)4 (designed binder)” displayed a Remaining IgG capacity after 24 hours (dynamic binding capacity at 10% breakthrough) of 70.2 mg/mL.
In turn, “Z(N3L, N6L, Q9I, E15L, N23V)4 (designed binder)” returned a Remaining IgG capacity after 24 hours (dynamic binding capacity at 10% breakthrough) of 45.3 mg/mL.
“Z(N3L, Q9I, E15L, N23V)4 (designed binder)” came in with a Remaining IgG capacity after 24 hours (dynamic binding capacity at 10% breakthrough) of 42.1 mg/mL.
On the same count and under the same terms, as for “Z(N3V, N6E, Q9I, E15L)4 (designed binder)”, the figure is 110 mg/mL.
On the same count and under the same terms, the result for “Z(N3V, N6L, Q9F, E15V, N23Y)4 (designed binder)” reads 67.9 mg/mL; that for “Z(N3V, N6L, Q9I, E15V, N23Y)6 (designed binder)”, 103 mg/mL; that for “Z(N6L, Q9F, E15I, N23V)4 (designed binder)”, 68.2 mg/mL.
Same read-out and setting: the result for Z(Q9F)4 (designed binder) reads 37.2 mg/mL; that for Z(Q9I)4 (designed binder), 39.6 mg/mL; that for Z(Q9M)4 (designed binder), 42.6 mg/mL.

The target in another test is IgG. In words: dynamic binding capacity at 10% breakthrough; ligand coupled to agarose medium, IgG 1 mg/ml loaded, before alkali treatment.
As to Z(E15D)4 (designed binder), the Initial IgG capability (dynamic binding capacity at 10% breakthrough) is 145 mg/mL.
In turn, Z(E15F)4 (designed binder) registered an Initial IgG capability (dynamic binding capacity at 10% breakthrough) of 155 mg/mL.
Still for that read-out and setting: the result for Z(E15I)4 (designed binder) reads 187 mg/mL; that for Z(E15L)4 (designed binder), 157 mg/mL; that for Z(E15S)4 (designed binder), 165 mg/mL.
For the substance Z(E15T)4 (designed binder), the Initial IgG capability (dynamic binding capacity at 10% breakthrough) stood at 176 mg/mL.
Still for that read-out and setting: the result for Z(E15V)4 (designed binder) reads 133 mg/mL; that for Z(E15W)4 (designed binder), 165 mg/mL; that for Z(E15Y)4 (designed binder), 174 mg/mL.
“Z(N3L, N6E, Q9F, E15L, N23I)4 (designed binder)” displayed an Initial IgG capability (dynamic binding capacity at 10% breakthrough) of 148 mg/mL.
In the case of “Z(N3L, N6E, Q9I, E15I, N23I)4 (designed binder)”, the Initial IgG capability (dynamic binding capacity at 10% breakthrough) was determined as 161 mg/mL.
Still for that read-out and setting: as for “Z(N3L, N6E, Q9I, E15I, N23I)6 (designed binder)”, the figure is 149 mg/mL; as for “Z(N3L, N6L, Q9F, E15I, N23V)4 (designed binder)”, 151 mg/mL.
On the same count and under the same terms, as for “Z(N3L, N6L, Q9F, E15I, N23V)6 (designed binder)”, the figure is 175 mg/mL; as for “Z(N3L, N6L, Q9I, E15L)4 (designed binder)”, 179 mg/mL.
In turn, “Z(N3L, N6L, Q9I, E15L, N23V)4 (designed binder)” displayed an Initial IgG capability (dynamic binding capacity at 10% breakthrough) of 159 mg/mL.
Substance “Z(N3L, Q9I, E15L, N23V)4 (designed binder)” gave an Initial IgG capability (dynamic binding capacity at 10% breakthrough) of 166 mg/mL.
On to “Z(N3V, N6E, Q9I, E15L)4 (designed binder)”, for which the Initial IgG capability (dynamic binding capacity at 10% breakthrough) is 177 mg/mL.
Still for that read-out and setting: as for “Z(N3V, N6L, Q9F, E15V, N23Y)4 (designed binder)”, the figure is 169 mg/mL.
Still for that read-out and setting: as for “Z(N3V, N6L, Q9I, E15V, N23Y)6 (designed binder)”, the figure is 190 mg/mL; as for “Z(N6L, Q9F, E15I, N23V)4 (designed binder)”, 186 mg/mL.
The same measure, in the same setting: the result for Z(Q9F)4 (designed binder) reads 182 mg/mL; that for Z(Q9I)4 (designed binder), 143 mg/mL; that for Z(Q9M)4 (designed binder), 136 mg/mL.

The next test deals with IgG. As to the kind of experiment: SPR, Biacore 4000; IgG immobilised on CM5 chip, mutant as analyte.
On to Z(E15D)4 (designed binder), for which the dissociation constant (Kd) was 1.13 nM. That is a single-digit nanomolar value.
Consider Z(E15F)4 (designed binder), for which the Kd turned out to be 3.99 nM. Compared with the last substance, the Kd is about 3.5-fold higher.
For Z(E15I)4 (designed binder), the Kd stood at 2.55 nM. Against the preceding substance, the Kd is about 1.6-fold lower.
Still for that read-out and setting: as for Z(E15L)4 (designed binder), the figure is 1.25 nM.
For the substance Z(E15S)4 (designed binder), the equilibrium dissociation constant (Kd) is 1.78 nM.
Z(E15T)4 (designed binder) returned a dissociation constant Kd of 4.71 nM.
Z(E15V)4 (designed binder) displayed a Kd of 2.66 nM.
In turn, Z(E15W)4 (designed binder) came in with a Kd of 1.54 nM.
The substance Z(E15Y)4 (designed binder) registered a dissociation constant (Kd) of 2.92 nM.
On the same count and under the same terms, as for “Z(N3L, N6E, Q9I, E15I, N23I)4 (designed binder)”, the figure is 2.57 nM; as for “Z(N3L, N6L, Q9I, E15L)4 (designed binder)”, 2.09 nM; as for “Z(N3L, N6L, Q9I, E15L, N23V)4 (designed binder)”, 2.33 nM.
Still for that read-out and setting: as for “Z(N3L, Q9I, E15L, N23V)4 (designed binder)”, the figure is 4.41 nM.
On the same count and under the same terms, the result for “Z(N3V, N6E, Q9I, E15L)4 (designed binder)” reads 2.72 nM; that for “Z(N3V, N6L, Q9F, E15V, N23Y)4 (designed binder)”, 2.76 nM; that for “Z(N6L, Q9F, E15I, N23V)4 (designed binder)”, 3.98 nM.
With Z(Q9F)4 (designed binder), the dissociation constant (Kd) worked out at 1.74 nM.
Same read-out and setting: as for Z(Q9M)4 (designed binder), the figure is 2.46 nM.

For another test, the target named is IgG. As to the kind of experiment: dynamic binding capacity at 10% breakthrough; ligand coupled to agarose medium; after 24 h of 1 M NaOH treatment, relative to initial capacity.
Z(E15D)4 (designed binder) had a Remaining IgG capacity after 24 hours (% of initial) of 14.9%.
The same measure, in the same setting: as for Z(E15F)4 (designed binder), the figure is 22.8%; as for Z(E15I)4 (designed binder), 17.7%.
In turn, Z(E15L)4 (designed binder) came in with a Remaining IgG capacity after 24 hours (% of initial) of 40.1%.
The same measure, in the same setting: as for Z(E15S)4 (designed binder), the figure is 43.6%; as for Z(E15T)4 (designed binder), 25.9%; as for Z(E15V)4 (designed binder), 24.9%.
Still for that read-out and setting: as for Z(E15W)4 (designed binder), the figure is 23.2%; as for Z(E15Y)4 (designed binder), 28%.
Substance “Z(N3L, N6E, Q9F, E15L, N23I)4 (designed binder)” showed a Remaining IgG capacity after 24 hours (% of initial) of 44%.
In the case of “Z(N3L, N6E, Q9I, E15I, N23I)4 (designed binder)”, the Remaining IgG capacity after 24 hours (% of initial) amounted to 35.4%.
Substance “Z(N3L, N6E, Q9I, E15I, N23I)6 (designed binder)” showed a Remaining IgG capacity after 24 hours (% of initial) of 58.8%.
The same measure, in the same setting: as for “Z(N3L, N6L, Q9F, E15I, N23V)4 (designed binder)”, the figure is 45.2%; as for “Z(N3L, N6L, Q9F, E15I, N23V)6 (designed binder)”, 63.9%.
Regarding “Z(N3L, N6L, Q9I, E15L)4 (designed binder)”, the Remaining IgG capacity after 24 hours (% of initial) came to 39.2%.
On the same count and under the same terms, as for “Z(N3L, N6L, Q9I, E15L, N23V)4 (designed binder)”, the figure is 28.5%; as for “Z(N3L, Q9I, E15L, N23V)4 (designed binder)”, 25.4%; as for “Z(N3V, N6E, Q9I, E15L)4 (designed binder)”, 62.2%.
Consider “Z(N3V, N6L, Q9F, E15V, N23Y)4 (designed binder)”, for which the Remaining IgG capacity after 24 hours (% of initial) came out at 40.1%.
Same read-out and setting: the result for “Z(N3V, N6L, Q9I, E15V, N23Y)6 (designed binder)” reads 54.2%; that for “Z(N6L, Q9F, E15I, N23V)4 (designed binder)”, 36.7%.
On the same count and under the same terms, as for Z(Q9F)4 (designed binder), the figure is 20.4%; as for Z(Q9I)4 (designed binder), 27.6%.
Same read-out and setting: the result for Z(Q9M)4 (designed binder) reads 31.5%.
